For 1 substance, cleavage of GLP1 (31.25 uM) by purified DPPIV (16 nM) in the presence of 1 uM Tat-1-86, MALDI-TOF mass spectrometry, after 5 min results are on record in publication PMC2967539.

The test addresses human dipeptidyl peptidase IV (human) (UniProt P27487).
Chain of UniProt P27487 (P27487 whole entry): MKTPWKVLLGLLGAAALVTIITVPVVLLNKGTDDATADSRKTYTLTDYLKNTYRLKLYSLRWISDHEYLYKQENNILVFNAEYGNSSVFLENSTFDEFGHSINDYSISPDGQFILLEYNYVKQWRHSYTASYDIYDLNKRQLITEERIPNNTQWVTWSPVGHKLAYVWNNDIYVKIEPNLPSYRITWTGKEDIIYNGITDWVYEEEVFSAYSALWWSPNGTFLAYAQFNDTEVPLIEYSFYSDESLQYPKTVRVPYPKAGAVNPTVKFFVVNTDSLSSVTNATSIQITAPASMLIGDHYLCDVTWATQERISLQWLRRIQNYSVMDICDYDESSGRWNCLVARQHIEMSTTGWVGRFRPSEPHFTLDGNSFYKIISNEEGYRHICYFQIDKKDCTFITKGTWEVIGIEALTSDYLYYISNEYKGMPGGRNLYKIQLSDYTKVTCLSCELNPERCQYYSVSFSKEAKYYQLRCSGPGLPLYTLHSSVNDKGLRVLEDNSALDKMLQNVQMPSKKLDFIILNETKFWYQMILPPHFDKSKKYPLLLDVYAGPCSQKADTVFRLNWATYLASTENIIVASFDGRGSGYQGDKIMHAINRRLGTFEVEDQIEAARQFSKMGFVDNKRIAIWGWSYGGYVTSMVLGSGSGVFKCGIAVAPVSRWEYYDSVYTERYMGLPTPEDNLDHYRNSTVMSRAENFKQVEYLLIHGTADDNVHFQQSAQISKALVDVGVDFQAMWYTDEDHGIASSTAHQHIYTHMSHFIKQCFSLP

For “Tat-1-86 protein (Immuno-Diagnostics) (from UniProt P04610 1-86) (natural protein)”, the cleavage of GLP1 (31.25 uM) by purified DPPIV (16 nM) in the presence of 1 uM Tat-1-86, MALDI-TOF mass spectrometry, after 5 min at 37 °C (all GLP1 cleaved within 5 min without Tat) came out at 40%.
